Values of other authors in PMC11578925.

Assays:
[1] = biological target: PD-L1 (Homo sapiens) (UniProt Q9NZQ7)
[2] = biological target: CD28 (Homo sapiens) (UniProt P10747)

Sequence of UniProt Q9NZQ7 (Q9NZQ7 19-238): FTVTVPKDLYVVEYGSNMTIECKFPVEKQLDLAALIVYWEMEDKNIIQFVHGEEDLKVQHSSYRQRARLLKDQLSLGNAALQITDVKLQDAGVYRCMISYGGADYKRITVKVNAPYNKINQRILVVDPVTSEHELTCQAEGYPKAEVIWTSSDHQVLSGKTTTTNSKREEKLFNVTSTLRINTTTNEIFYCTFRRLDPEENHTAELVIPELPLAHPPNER

CD80 (from UniProt P33681)
Kd [1]: 1.7 µM | Kd [2]: 4 µM
